Laboratory results: PMC2133036 (The Journal of Cell Biology, 1998)
Values joined by “and” are separate entries in the source; they are usually repeats but may differ in a detail not shown here. Identical values can stand only once.

Target: T1, Vma22p (S. cerevisiae, UniProt P38784 1-181)
T1 sequence (looked up): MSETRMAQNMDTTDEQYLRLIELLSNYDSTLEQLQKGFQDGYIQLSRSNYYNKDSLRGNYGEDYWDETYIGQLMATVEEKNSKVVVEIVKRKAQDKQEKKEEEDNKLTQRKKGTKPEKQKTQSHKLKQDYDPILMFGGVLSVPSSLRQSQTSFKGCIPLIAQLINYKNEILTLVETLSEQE
Test: cross-linking

B1: Vph1p, the 100-kD integral membrane subunit of the V-ATPase (natural protein, S. cerevisiae, UniProt P32563 1-840, looked up)
chain: MAEKEEAIFRSAEMALVQFYIPQEISRDSAYTLGQLGLVQFRDLNSKVRAFQRTFVNEIRRLDNVERQYRYFYSLLKKHDIKLYEGDTDKYLDGSGELYVPPSGSVIDDYVRNASYLEERLIQMEDATDQIEVQKNDLEQYRFILQSGDEFFLKGDNTDSTSYMDEDMIDANGENIAAAIGASVNYVTGVIARDKVATLEQILWRVLRGNLFFKTVEIEQPVYDVKTREYKHKNAFIVFSHGDLIIKRIRKIAESLDANLYDVDSSNEGRSQQLAKVNKNLSDLYTVLKTTSTTLESELYAIAKELDSWFQDVTREKAIFEILNKSNYDTNRKILIAEGWIPRDELATLQARLGEMIARLGIDVPSIIQVLDTNHTPPTFHRTNKFTAGFQSICDCYGIAQYREINAGLPTIVTFPFMFAIMFGDMGHGFLMTLAALSLVLNEKKINKMKRGEIFDMAFTGRYIILLMGVFSMYTGFLYNDIFSKTMTIFKSGWKWPDHWKKGESITATSVGTYPIGLDWAWHGTENALLFSNSYKMKLSILMGFIHMTYSYFFSLANHLYFNSMIDIIGNFIPGLLFMQGIFGYLSVCIVYKWAVDWVKDGKPAPGLLNMLINMFLSPGTIDDELYPHQAKVQVFLLLMALVCIPWLLLVKPLHFKFTHKKKSHEPLPSTEADASSEDLEAQQLISAMDADDAEEEEVGSGSHGEDFGDIMIHQVIHTIEFCLNCVSHTASYLRLWALSLAHAQLSSVLWTMTIQIAFGFRGFVGVFMTVALFAMWFALTCAVLVLMEGTSAMLHSLRLHWVESMSKFFVGEGLPYEPFAFEYKDMEVAVASASSSASS
- half-life of the interaction in cells (pulse-chase, cross-linkable Vph1p): < 5 min and ~5 min
